This note sets out measurements from patent US9402913B2, “Cyclosporine A steroid conjugates” (Allergan, Inc., priority 2013, dated 2016).

In the data set the test system is human recombinant carboxylesterases. Kind of data set: In vitro metabolic stability in human recombinant carboxylesterases (rate of metabolite formation, LC-MS/MS). It counts as in vitro ADME. Particulars: 1 μM test compound, 0.1 mg/mL human recombinant carboxylesterase mixture, pH=6.0, 37° C., triplicate. As for the experimental part:
In Vitro Metabolic Stability in Human Recombinant Carboxylesterases
Human recombinant carboxylesterases were purchased from a commercial vendor (BD Gentest™, Bedford, Mass.). All metabolic stability experiments were performed in triplicate in 96-well plate format. The final incubation mixture contained 1 μM test compound and 0.1 mg/mL human recombinant carboxylesterase mixture in a final volume of 0.5 mL 0.1M potassium phosphate buffer (pH=6.0). […] Following a pre-incubation at 37° C., test article was added to initiate the reaction. At designated time points (typically 120 minutes to capture the linear range of metabolite formation), 0.05 mL aliquots were removed from the incubation mixtures using a clean pipet tip and immediately placed in organic solvent to stop any esterase activity.
The samples were analyzed by liquid chromatography with mass spectrometry (LC-MS/MS) detection to determine the metabolite concentrations resulting from the metabolism of the hybrid compounds. Internal standards were used to compensate for variability from sample processing, chromatographic elution, mass spectrometer response and ion suppression by matrix components.

With `C/C=C/C[C@@H](C)C(OC(=O)OCOC(=O)CCC(=O)OCCOCCOCCOC(=O)CCC(=O)OCC(=O)[C@@]1(O)CCC2C3CCC4=CC(=O)C=C[C@]4(C)C3[C@@H](O)C[C@@]21C)C1C(=O)NC(CC)C(=O)N(C)CC(=O)N(C)[C@@H](CC(C)C)C(=O)NC(C(C)C)C(=O)N(C)C(CC(C)C)C(=O)NC(C)C(=O)NC(C)C(=O)N(C)C(CC(C)C)C(=O)N(C)C(CC(C)C)C(=O)N(C)C(C(C)C)C(=O)N1C` (relative stereo) [Compound 5], the “Rate of formation Metabolite 2 (Cyclosporine A)” value (from here on “Rate … (Cyclosporine A)”) is on record as 35.6 ± 0.63 nM/min/mg and the “Rate of formation Metabolite 1 (Prednisolone)” value (“Rate … (Prednisolone)” below) is reported as 84.4 ± 7.52 nM/min/mg.

For the molecule `C/C=C/C[C@@H](C)[C@@H](OC(=O)OCOC(=O)CCC(=O)OCCOCCOCCOCCOC(=O)CCC(=O)OCC(=O)[C@@]1(O)CCC2C3CCC4=CC(=O)C=C[C@]4(C)C3[C@@H](O)C[C@@]21C)C1C(=O)NC(CC)C(=O)N(C)CC(=O)N(C)[C@@H](CC(C)C)C(=O)NC(C(C)C)C(=O)N(C)C(CC(C)C)C(=O)NC(C)C(=O)NC(C)C(=O)N(C)C(CC(C)C)C(=O)N(C)C(CC(C)C)C(=O)N(C)C(C(C)C)C(=O)N1C` (relative stereo) [Compound 6], the “Rate … (Cyclosporine A)” value worked out at 34.4 ± 3.85 nM/min/mg.

With `C/C=C/C[C@@H](C)C(OC(=O)CN(C)C(=O)CNC(=O)OCOC(=O)CCC(=O)OCC(=O)[C@@]1(O)CCC2C3CCC4=CC(=O)C=C[C@]4(C)C3[C@@H](O)C[C@@]21C)C1C(=O)NC(CC)C(=O)N(C)CC(=O)N(C)[C@@H](CC(C)C)C(=O)NC(C(C)C)C(=O)N(C)C(CC(C)C)C(=O)NC(C)C(=O)N[C@@H](C)C(=O)N(C)[C@@H](CC(C)C)C(=O)N(C)C(CC(C)C)C(=O)N(C)C(C(C)C)C(=O)N1C` (relative stereo) [Compound 7], the “Rate … (Cyclosporine A)” value was found to be 1.31 ± 0.18 nM/min/mg and the “Rate … (Prednisolone)” value is on record as 4.26 ± 1.31 nM/min/mg.

For `C/C=C/C[C@@H](C)[C@@H](OC(=O)OCOC(=O)CCC(=O)OCCOCCOCCOCCOC(=O)CCC(=O)OCC(=O)[C@@]1(O)[C@H](C)CC2C3CCC4=CC(=O)C=C[C@]4(C)[C@@]3(F)[C@@H](O)C[C@@]21C)C1C(=O)NC(CC)C(=O)N(C)CC(=O)N(C)[C@@H](CC(C)C)C(=O)NC(C(C)C)C(=O)N(C)C(CC(C)C)C(=O)NC(C)C(=O)NC(C)C(=O)N(C)C(CC(C)C)C(=O)N(C)C(CC(C)C)C(=O)N(C)C(C(C)C)C(=O)N1C` (relative stereo) [Compound 20], the “Rate … (Cyclosporine A)” value was 13.9 ± 1.11 nM/min/mg and the “Rate of formation Metabolite 1 (Dexamethasone)” value is 12.0 ± 0.88 nM/min/mg.

Regarding `C/C=C/C[C@@H](C)[C@@H](OC(=O)OCOC(=O)CCC(=O)OCCOCCOC(=O)CCC(=O)OCC(=O)[C@@]1(O)CCC2C3CCC4=CC(=O)C=C[C@]4(C)C3[C@@H](O)C[C@@]21C)C1C(=O)NC(CC)C(=O)N(C)CC(=O)N(C)[C@@H](CC(C)C)C(=O)NC(C(C)C)C(=O)N(C)C(CC(C)C)C(=O)NC(C)C(=O)NC(C)C(=O)N(C)C(CC(C)C)C(=O)N(C)C(CC(C)C)C(=O)N(C)C(C(C)C)C(=O)N1C` (relative stereo) [Compound 21], the “Rate … (Cyclosporine A)” value worked out at 21.6 ± 0.03 nM/min/mg.

With `C/C=C/C[C@@H](C)[C@@H](OC(=O)OCOC(=O)CCC(=O)OCCOCCOCCOCCOCCOC(=O)CCC(=O)OCC(=O)[C@@]1(O)CCC2C3CCC4=CC(=O)C=C[C@]4(C)C3[C@@H](O)C[C@@]21C)C1C(=O)NC(CC)C(=O)N(C)CC(=O)N(C)[C@@H](CC(C)C)C(=O)NC(C(C)C)C(=O)N(C)C(CC(C)C)C(=O)NC(C)C(=O)NC(C)C(=O)N(C)C(CC(C)C)C(=O)N(C)C(CC(C)C)C(=O)N(C)C(C(C)C)C(=O)N1C` (relative stereo) [Compound 22], the “Rate … (Cyclosporine A)” value is listed as 46.5 ± 3.16 nM/min/mg and the “Rate … (Prednisolone)” value was 38.4 ± 3.32 nM/min/mg.

In the case of `C/C=C/C[C@@H](C)[C@@H](OC(=O)OCOC(=O)CCC(=O)OCCOCCOCCOC(=O)CCC(=O)OCC(=O)[C@@]1(O)[C@H](C)CC2C3CCC4=CC(=O)C=C[C@]4(C)[C@@]3(F)[C@@H](O)C[C@@]21C)C1C(=O)NC(CC)C(=O)N(C)CC(=O)N(C)[C@@H](CC(C)C)C(=O)NC(C(C)C)C(=O)N(C)C(CC(C)C)C(=O)NC(C)C(=O)NC(C)C(=O)N(C)C(CC(C)C)C(=O)N(C)C(CC(C)C)C(=O)N(C)C(C(C)C)C(=O)N1C` (relative stereo) [Compound 32], the “Rate … (Cyclosporine A)” value amounted to 13.4 ± 1.31 nM/min/mg and the “Rate of formation Metabolite 1 (Dexamethasone)” value is given as 20.4 ± 3.18 nM/min/mg.
